Laboratory results from patent US20220125919A1.

How the values were obtained:
[1] = target: EBV LMP2A epitope … presented by HLA-A*0201 (human); assay: cell-based or functional assay
[2] = target: HCMV pp65 epitope … presented by HLA-A*0201 (human); assay: cell-based or functional assay

## TCR that recognizes peptide … presented by A*0201 (PDB #3REV)
[1]
  luciferase induction relative to uninfected controls, short cassette design 9AA: 12
  luciferase induction relative to uninfected controls, short cassette design 17AA: 10.3
  luciferase induction relative to uninfected controls, short cassette design 25AA: 14.6
  luciferase induction relative to uninfected controls, short cassette design DPP: 1.1
  luciferase induction relative to uninfected controls, short cassette design RR: 8.5

## TCR that recognizes peptide … presented by A*0201 (PDB #5D2N)
[2]
  luciferase induction relative to uninfected controls, short cassette design 9AA: 33.6
  luciferase induction relative to uninfected controls, short cassette design 17AA: 42.8
  luciferase induction relative to uninfected controls, short cassette design 25AA: 42.3
  luciferase induction relative to uninfected controls, short cassette design DPP: 0.9
  luciferase induction relative to uninfected controls, short cassette design RR: 21.7
  luciferase induction, in vitro T cell activation assay, short cassette design AAY: 24.5
  luciferase induction, in vitro T cell activation assay, targeting-sequence short cassette design A: 32.5
  luciferase induction, in vitro T cell activation assay, targeting-sequence short cassette design B: 31.8
  luciferase induction, in vitro T cell activation assay, targeting-sequence short cassette design C: 29.1
  luciferase induction, in vitro T cell activation assay, targeting-sequence short cassette design D: 29.1
  luciferase induction, in vitro T cell activation assay, targeting-sequence short cassette design E: 28.4
  luciferase induction, in vitro T cell activation assay, targeting-sequence short cassette design F: 20.4
  luciferase induction, in vitro T cell activation assay, targeting-sequence short cassette design G: 35
  luciferase induction, in vitro T cell activation assay, targeting-sequence short cassette design H: 30.3
  luciferase induction, in vitro T cell activation assay, targeting-sequence short cassette design I: 22.5
  luciferase induction, in vitro T cell activation assay, targeting-sequence short cassette design J: 38.1
